B1: MS-66 (antibody)
VH: not shown
VL: DIVLTQSPHSLSVTPGESASISCKSSHSLIHGDRNNYLAWYVQKPGRSPQLLIYLASSRASGVPDRFSGSGSDKDFTLKISRVETEDVGTYYCMQGRESPWTFGQGTKVDIKRTVAAPSVFIFPPSDEQLKSGTASVVCLLNNFYPREAKVQWKVDNALQSGNSQESVTEQDSKDSTYSLSSTLTLSKADYEKHKVYACEVTHQGLSSPVTKSFNRGEC
B2: MS-67 (antibody)
VH: not shown
VL: DFVLTQSPLSLSVTPGESASISCKSSHSLIHGDRNNYLAWYVQKPGRSPQLLIYLASSRASGVPDRFSGSGSDKDFTLKISRVETEDVGTYYCMQGRESPWTFGQGTKVDIKRTVAAPSVFIFPPSDEQLKSGTASVVCLLNNFYPREAKVQWKVDNALQSGNSQESVTEQDSKDSTYSLSSTLTLSKADYEKHKVYACEVTHQGLSSPVTKSFNRGEC
B3: MS-71 (antibody)
VH: not shown
VL: DFVLTQSPHSLSVTPGESASISCKSSHSLIHGDRNNYLAWYVQKPGRSPQLLIYLASSRASGVPDRFSGSGSGKDFTLKISRVETEDVGTYYCMQGRESPWTFGQGTKVDIKRTVAAPSVFIFPPSDEQLKSGTASVVCLLNNFYPREAKVQWKVDNALQSGNSQESVTEQDSKDSTYSLSSTLTLSKADYEKHKVYACEVTHQGLSSPVTKSFNRGEC
B4: MS-69 (antibody)
VH: not shown
VL: DFVLTQSPHSLSVTPGEPASISCKSSHSLIHGDRNNYLAWYVQKPGRSPQLLIYLASSRASGVPDRFSGSGSDKDFTLKISRVETEDVGTYYCMQGRESPWTFGQGTKVDIKRTVAAPSVFIFPPSDEQLKSGTASVVCLLNNFYPREAKVQWKVDNALQSGNSQESVTEQDSKDSTYSLSSTLTLSKADYEKHKVYACEVTHQGLSSPVTKSFNRGEC
B5: MS-67 (antibody)
VH: not shown
VL: DFVLTQSPLSLSVTPGESASISCKSSHSLIHGDRNNYLAWYVQKPGRSPQLLIYLASSRASGVPDRFSGSGSDKDFTLKISRVETEDVGTYYCMQGRESPWTFGQGTKVDIKRTVAAPSVFIFPPSDEQLKSGTASVVCLLNNFYPREAKVQWKVDNALQSGNSQESVTEQDSKDSTYSLSSTLTLSKADYEKHKVYACEVTHQGLSSPVTKSFNRGEC
B6: MS-68 (antibody)
VH: not shown
VL: DFVLTQSPHSLPVTPGESASISCKSSHSLIHGDRNNYLAWYVQKPGRSPQLLIYLASSRASGVPDRFSGSGSDKDFTLKISRVETEDVGTYYCMQGRESPWTFGQGTKVDIKRTVAAPSVFIFPPSDEQLKSGTASVVCLLNNFYPREAKVQWKVDNALQSGNSQESVTEQDSKDSTYSLSSTLTLSKADYEKHKVYACEVTHQGLSSPVTKSFNRGEC
B7: MS-73 (antibody)
VH: not shown
VL: DFVLTQSPHSLSVTPGESASISCKSSHSLIHGDRNNYLAWYVQKPGRSPQLLIYLASSRASGVPDRFSGSGSDKDFTLKISRVEAEDVGTYYCMQGRESPWTFGQGTKVDIKRTVAAPSVFIFPPSDEQLKSGTASVVCLLNNFYPREAKVQWKVDNALQSGNSQESVTEQDSKDSTYSLSSTLTLSKADYEKHKVYACEVTHQGLSSPVTKSFNRGEC
B8: MS-70 (antibody, V domains shown)
VH: QVQLVQSGPEVRKPGTSVKVSCKAPGNTLKTYDLHWVRSVPGQGLQWMGWISHEGDKKVIVERFKAKVTIDWDRSTNTAYLQLSGLTSGDTAVYYCAKGSKHRLRDYALYDDDGALNWAVDVDYLSNLEFWGQGTAVTVSS
VL: DFVLTQSPHSLSVTPGESASISCKSSHSLIHGDRNNYLAWYVQKPGQSPQLLIYLASSRASGVPDRFSGSGSDKDFTLKISRVETEDVGTYYCMQGRESPWTFGQGTKVDIKR
B9: MS-72 (antibody, V domains shown)
VH: QVQLVQSGPEVRKPGTSVKVSCKAPGNTLKTYDLHWVRSVPGQGLQWMGWISHEGDKKVIVERFKAKVTIDWDRSTNTAYLQLSGLTSGDTAVYYCAKGSKHRLRDYALYDDDGALNWAVDVDYLSNLEFWGQGTAVTVSS
VL: DFVLTQSPHSLSVTPGESASISCKSSHSLIHGDRNNYLAWYVQKPGRSPQLLIYLASSRASGVPDRFSGSGSDTDFTLKISRVETEDVGTYYCMQGRESPWTFGQGTKVDIKR
B10: MS-74 (antibody, V domains shown)
VH: QVQLVQSGPEVRKPGTSVKVSCKAPGNTLKTYDLHWVRSVPGQGLQWMGWISHEGDKKVIVERFKAKVTIDWDRSTNTAYLQLSGLTSGDTAVYYCAKGSKHRLRDYALYDDDGALNWAVDVDYLSNLEFWGQGTAVTVSS
VL: DFVLTQSPHSLSVTPGESASISCKSSHSLIHGDRNNYLAWYVQKPGRSPQLLIYLASSRASGVPDRFSGSGSDKDFTLKISRVETEDVGVYYCMQGRESPWTFGQGTKVDIKR

Legend:
Assay in all cases: cell-based or functional assay
HIV-1 pseudovirus 263-8 = HIV-1 pseudovirus 263-8 (HIV-1)
[1] = target: HIV-1 pseudovirus X1193_c1 (HIV-1)
[2] = target: HIV-1 pseudovirus 6952.v1.c20 (HIV-1)
[3] = target: HIV-1 pseudovirus Ce1176_A3 (HIV-1)
[4] = target: HIV-1 pseudovirus SC05.8C11.2344 (HIV-1)
[5] = target: HIV-1 pseudovirus AC10.0.29 (HIV-1)
[6] = target: HIV-1 Env of pseudovirus BB1012-11.TC21 (HIV-1)
[7] = target: HIV-1 Env of pseudovirus CNE52 (HIV-1)
[8] = target: HIV-1 Env of pseudovirus Du172.17 (HIV-1)
[9] = target: HIV-1 Env of pseudovirus RHPA4259.7 (HIV-1)
[10] = target: HIV-1 Env of pseudovirus SC422661.8 (HIV-1)
[11] = target: HIV-1 Env of pseudovirus 0260.v5.c36 (HIV-1)

| Binder | IC50 (neutralization in TZM.bl cells) (HIV-1 pseudovirus 263-8) | IC80 (neutralization in TZM.bl cells) (HIV-1 pseudovirus 263-8) | IC50 (neutralization in TZM.bl cells) [1] | IC80 (neutralization in TZM.bl cells) [1] | IC50 (neutralization in TZM.bl cells) [2] | IC80 (neutralization in TZM.bl cells) [2] | IC50 (neutralization in TZM.bl cells) [3] | IC80 (neutralization in TZM.bl cells) [3] | IC50 (neutralization in TZM.bl cells) [4] | IC80 (neutralization in TZM.bl cells) [4] | IC50 (neutralization in TZM.bl cells) [5] | IC80 (neutralization in TZM.bl cells) [5] | further results |
| --- | --- | --- | --- | --- | --- | --- | --- | --- | --- | --- | --- | --- | --- |
| B1 | 0.017 µg/mL | 0.06 µg/mL | 0.086 µg/mL | 0.322 µg/mL | 0.284 µg/mL | > 25 µg/mL | 0.165 µg/mL | 5.43 µg/mL | 0.811 µg/mL | 2.54 µg/mL | 0.035 µg/mL | 0.213 µg/mL |  |
| B2 |  |  |  |  |  |  |  |  |  |  |  |  | neutralization IC50 [6]: 0.017 µg/mL; neutralization IC80 [6]: 0.071 µg/mL; neutralization IC50 [7]: 0.212 µg/mL; neutralization IC80 [7]: 1.81 µg/mL; neutralization IC50 [8]: 1.76 µg/mL; neutralization IC80 [8]: 9.31 µg/mL; neutralization IC50 [9]: 0.129 µg/mL; neutralization IC80 [9]: 0.706 µg/mL; neutralization IC50 [10]: 0.549 µg/mL; neutralization IC80 [10]: 2.83 µg/mL; neutralization IC50 [11]: 0.023 µg/mL; neutralization IC80 [11]: 0.088 µg/mL |
| B3 | 0.014 µg/mL | 0.041 µg/mL | 0.072 µg/mL | 0.265 µg/mL | 0.325 µg/mL | 7.92 µg/mL | 0.04 µg/mL | 0.796 µg/mL | 0.425 µg/mL | 1.41 µg/mL | 0.035 µg/mL | 0.177 µg/mL |  |
| B4 | 0.01 µg/mL | 0.046 µg/mL | 0.072 µg/mL | 0.326 µg/mL | 0.182 µg/mL | 3.06 µg/mL | 0.087 µg/mL | 1.71 µg/mL | 0.456 µg/mL | 1.69 µg/mL | 0.029 µg/mL | 0.169 µg/mL |  |
| B5 | 0.011 µg/mL | 0.037 µg/mL | 0.075 µg/mL | 0.303 µg/mL | 0.28 µg/mL | 7.89 µg/mL | 0.105 µg/mL | 1.9 µg/mL | 0.631 µg/mL | 2.14 µg/mL | 0.031 µg/mL | 0.186 µg/mL |  |
| B6 | 0.011 µg/mL | 0.038 µg/mL | 0.1 µg/mL | 0.287 µg/mL | 0.206 µg/mL | 12.9 µg/mL | 0.096 µg/mL | 1.64 µg/mL | 0.708 µg/mL | 1.95 µg/mL | 0.04 µg/mL | 0.169 µg/mL |  |
| B7 | 0.01 µg/mL | 0.032 µg/mL | 0.085 µg/mL | 0.327 µg/mL | 0.222 µg/mL | 6.99 µg/mL | 0.035 µg/mL | 0.581 µg/mL | 0.461 µg/mL | 1.62 µg/mL | 0.041 µg/mL | 0.206 µg/mL |  |
| B8 | 0.016 µg/mL | 0.047 µg/mL | 0.111 µg/mL | 0.413 µg/mL | 0.285 µg/mL | 4.84 µg/mL | 0.06 µg/mL | 0.968 µg/mL | 0.508 µg/mL | 1.36 µg/mL | 0.053 µg/mL | 0.206 µg/mL |  |
| B9 | 0.02 µg/mL | 0.057 µg/mL | 0.072 µg/mL | 0.258 µg/mL | 0.643 µg/mL | 12.4 µg/mL | 0.074 µg/mL | 1.3 µg/mL | 0.791 µg/mL | 2.85 µg/mL | 0.051 µg/mL | 0.255 µg/mL |  |
| B10 | 0.013 µg/mL | 0.037 µg/mL | 0.086 µg/mL | 0.296 µg/mL | 0.285 µg/mL | 15.1 µg/mL | 0.028 µg/mL | 0.564 µg/mL | 0.415 µg/mL | 1.94 µg/mL | 0.041 µg/mL | 0.216 µg/mL |  |

From US20220025021A1 (BETH ISRAEL DEACONESS MEDICAL CENTER, published 2022)
